# According to paper PMC8025907:
# Legend:
# [1] = molecular target: T1, His6-BfmR (Pseudomonas aeruginosa MPAO1) (UniProt Q9HWS7); assay: EMSA; details: 10 mM Tris-Cl pH 8.0, 1 mM DTT, 10% glycerol, 5 mM MgCl2, 10 mM KCl, 50 mM acetyl phosphate; EMSA 30 min at 37 C; footprinting 30 min at room temperature
# T1 sequence: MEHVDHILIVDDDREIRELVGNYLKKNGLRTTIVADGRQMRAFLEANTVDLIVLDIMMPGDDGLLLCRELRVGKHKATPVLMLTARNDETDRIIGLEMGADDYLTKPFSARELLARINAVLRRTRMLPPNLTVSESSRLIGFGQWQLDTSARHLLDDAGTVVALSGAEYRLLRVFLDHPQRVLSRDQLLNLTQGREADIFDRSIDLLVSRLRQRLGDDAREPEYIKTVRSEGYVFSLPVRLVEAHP
# [2] = molecular target: T1, His6-BfmR (Pseudomonas aeruginosa MPAO1); assay: DNase I footprinting; details: 10 mM Tris-Cl pH 8.0, 1 mM DTT, 10% glycerol, 5 mM MgCl2, 10 mM KCl, 50 mM acetyl phosphate; EMSA 30 min at 37 C; footprinting 30 min at room temperature
sequence,measurement,setting,value
GAATATCCGAAAGCCAGACGGTTATCGGCAGAAACTCTTGGTTTTCATTGCAGTCATGCAATCTTCGCAAGGTTGCCGCAATATATGAAACAAACTGTTACATCTGTCGCCCGGACCTGATGCCTCTAGGCCTGCGCCCTTATCCGACGGCCTCATCCAGGCGCTATCCGGCTGCCTGTCACAAAAGCTTTCGCGCTTTGCAGTCTCGCTGTCACAACCCATCCAGATGATCCCCCTCCAGCAGCGCCGGCCGGCGACAGAACCGGCCGTTTCCGCGCTGCTCAAGA (double strand) [oprP promoter],binding,[1],binds
same,binding,[2],binds
